# Source: patent US20240228543
# Columns and labels:
# [1] = target: hD1 cyclic peptide
# [2] = target: hL1 cyclic peptide
# [3] = target: hD5 cyclic peptide
# [4] = target: hD2 cyclic peptide
# [5] = target: yD1 cyclic peptide
# [6] = target: hD4 cyclic peptide
# [7] = target: hD3 cyclic peptide
protein,measurement,setting,value
USP7 catalytic domain (protein) KKHTGYVGLKNQGATCYMNSLLQTLFFTNQLRKAVYMMPTEGDDSSKSVPLALQRVFYELQHSDKPVGTKKLTKSFGWETLDSFMQHDVQELCRVLLDNVENKMKGTCVEGTIPKLFRGKMVSYIQCKEVDYRSDRREDYYDIQLSIKGKKNIFESFVDYVAVEQLDGDNKYDAGEHGLQEAEKGVKFLTLPPVLHLQLMRFMYDPQTDQNIKINDRFEFPEQLPLDEFLQKTDPKDPANYILHAVLVHSGDNHGGHYVVYLNPKGDGKWCKFDDDVVSRCTKEEAIEHNYGGHDDDLSVRHCTNAYMLVYIRESKLSEVLQAVTDHDIPQQLVERLQEEKRIEAQKRKERQE,ubiquitin-AMC cleavage with 1 µM hD1,[1],the hD1 peptide had no effect on USP7CD or CYLD activity
"human SAGA deubiquitinating module (USP22/ATXN7L3/ENY2/ATXN7), construct lacking the Avi tag, 6xHis tag cleaved (protein) chain 1: MVSRPEPEGEAMDAELAVAPPGCSHLGSFKVDNWKQNLRAIYQCFVWSGTAEARKRKAKSCICHVCGVHLNRLHSCLYCVFFGCFTKKHIHEHAKAKRHNLAIDLMYGGIYCFLCQDYIYDKDMEIIAKEEQRKAWKMQGVGEKFSTWEPTKRELELLKHNPKRRKITSNCTIGLRGLINLGNTCFMNCIVQALTHTPLLRDFFLSDRHRCEMQSPSSCLVCEMSSLFQEFYSGHRSPHIPYKLLHLVWTHARHLAGYEQQDAHEFLIAALDVLHRHCKGDDNGKKANNPNHCNCIIDQIFTGGLQSDVTCQVCHGVSTTIDPFWDISLDLPGSSTPFWPLSPGSEGNVVNGESHVSGTTTLTDCLRRFTRPEHLGSSAKIKCSGCHSYQESTKQLTMKKLPIVACFHLKRFEHSAKLRRKITTYVSFPLELDMTPFMASSKESRMNGQYQQPTDSLNNDNKYSLFAVVNHQGTLESGHYTSFIRQHKDQWFKCDDAIITKASIKDVLDSEGYLLFYHKQFLEYE chain 2: ERAADDVRGEPRRAAAAAGGAAAAAARQQQQQQQQQQPPPPQPQRQQHPPPPPRRTRPEDGGPGAASTSAAAMATVGERRPLPSPEVMLGQSWNLWVEASKLPGKDGTELDESFKEFGKNREVMGLCREDMPIFGFCPAHDDFYLVVCN chain 3: MKMEEMSLSGLDNSKLEAIAQEIYADLVEDSCLGFCFEVHRAVKCGYFFLDDTDPDSMKDFEIVDQPGLDIFGQVFNQWKSKECVCPNCSRSIAASRFAPHLEKCLGMGRNSSRIANRRIANSNNMNKSESDQEDNDDINDNDWSYGSEKKAKKRKSDKNPNSPRRSKSLKHKNGELSNSDPFKYNNSTGISYETLGPEELRSLLTTQCGVISEHTKKMCTRSLRCPQHTDEQRRTVRIYFLGPSAVLPEVESSLDNDSFDMTDSQALISRLQWDGSSDLSPSDSGSSKTSENQGWGLGTNSSESRKTKKKKSHLSLVGTASGLGSNKKKKPKPPAPPTPSIYDDIN chain 4: MVVSKMNKDAQMRAAINQKLIETGERERLKELLRAKLIECGWKDQLKAHCKEVIKEKGLEHVTVDDLVAEITPKGRALVPDSVKKELLQRIRTFLAQHASL",Ub-AMC cleavage with 1 µM hD1,[1],the USP22/DUB module has no detectable activity under these conditions
same,"cleavage of nucleosomal H2B-Ub (200 nM hDUBm, 1 µM peptide)",[1],"With the exception of hD4, all of the cyclic peptide leads were potent inhibitors of nucleosomal H2B-Ub cleavage by the human DUB module"
same,"cleavage of nucleosomal H2B-Ub (200 nM hDUBm, 1 µM peptide)",[2],"With the exception of hD4, all of the cyclic peptide leads were potent inhibitors of nucleosomal H2B-Ub cleavage by the human DUB module"
same,"cleavage of nucleosomal H2B-Ub (200 nM hDUBm, 1 µM peptide)",[3],"With the exception of hD4, all of the cyclic peptide leads were potent inhibitors of nucleosomal H2B-Ub cleavage by the human DUB module"
same,"cleavage of nucleosomal H2B-Ub (200 nM hDUBm, 1 µM peptide)",[4],"With the exception of hD4, all of the cyclic peptide leads were potent inhibitors of nucleosomal H2B-Ub cleavage by the human DUB module"
same,Ub-AMC cleavage over a range of yD1 concentrations,[5],yD1 also did not inhibit the human DUBm
same,"cleavage of nucleosomal H2B-Ub (200 nM hDUBm, 1 µM peptide)",[6],also showed very weak inhibition of hDUBm on nucleosomal H2B-Ub
same,"cleavage of nucleosomal H2B-Ub (200 nM hDUBm, 1 µM peptide)",[7],"With the exception of hD4, all of the cyclic peptide leads were potent inhibitors of nucleosomal H2B-Ub cleavage by the human DUB module"
USP27x alone (DUBprofiler panel) (protein) MCKDYVYDKDIEQIAKEEQGEALKLQASTSTEVSHQQCSVPGLGEKFPTWETTKPELELLGHNPRRRRITSSFTIGLRGLINLGNTCFMNCIVQALTHTPILRDFFLSDRHRCEMPSPELCLVCEMSSLFRELYSGNPSPHVPYKLLHLVWIHARHLAGYRQQDAHEFLIAALDVLHRHCKGDDVGKAANNPNHCNCIIDQIFTGGLQSDVTCQACHGVSTTIDPCWDISLDLPGSCTSFWPMSPGRESSVNGESHIPGITTLTDCLRRFTRPEHLGSSAKIKCGSCQSYQESTKQLTMNKLPVVACFHFKRFEHSAKQRRKITTYISFPLELDMTPFMASSKESRMNGQLQLPTNSGNNENKYSLFAVVNHQGTLESGHYTSFIRHHKDQWFKCDDAVITKASIKDVLDSEGYLLFYHKQVLEHESEKVKEMNTQAY,ubiquitin-rhodamine(110)-glycine cleavage with 1 µM hD1 (DUBprofiler),[1],"USP27x, whose activity was reduced by ˜50%"
CYLD (protein) MSSGLWSQEKVTSPYWEERIFYLLLQECSVTDKQTQKLLKVPKGSIGQYIQDRSVGHSRIPSAKGKKNQIGLKILEQPHAVLFVDEKDVVEINEKFTELLLAITNCEERFSLFKNRNRLSKGLQIDVGCPVKVQLRSGEEKFPGVVRFRGPLLAERTVSGIFFGVELLEEGRGQGFTDGVYQGKQLFQCDEDCGVFVALDKLELIEDDDTALESDYAGPGDTMQVELPPLEINSRVSLKVGETIESGTVIFCDVLPGKESLGYFVGVDMDNPIGNWDGRFDGVQLCSFACVESTILLHINDIIPALSESVTQERRPPKLAFMSRGVGDKGSSSHNKPKATGSTSDPGNRNRSELFYTLNGSSVDSQPQSKSKNTWYIDEVAEDPAKSLTEISTDFDRSSPPLQPPPVNSLTTENRFHSLPFSLTKMPNTNGSIGHSPLSLSAQSVMEELNTAPVQESPPLAMPPGNSHGLEVGSLAEVKENPPFYGVIRWIGQPPGLNEVLAGLELEDECAGCTDGTFRGTRYFTCALKKALFVKLKSCRPDSRFASLQPVSNQIERCNSLAFGGYLSEVVEENTPPKMEKEGLEIMIGKKKGIQGHYNSCYLDSTLFCLFAFSSVLDTVLLRPKEKNDVEYYSETQELLRTEIVNPLRIYGYVCATKIMKLRKILEKVEAASGFTSEEKDPEEFLNILFHHILRVEPLLKIRSAGQKVQDCYFYQIFMEKNEKVGVPTIQQLLEWSFINSNLKFAEAPSCLIIQMPRFGKDFKLFKKIFPSLELNITDLLEDTPRQCRICGGLAMYECRECYDDPDISAGKIKQFCKTCNTQVHLHPKRLNHKYNPVSLPKDLPDWDWRHGCIPCQNMELFAVLCIETSHYVAFVKYGKDDSAWLFFDSMADRDGGQNGFNIPQVTPCPEVGEYLKMSLEDLHSLDSRRIQGCARRLLCDAYMCMYQSPTMSLYK,ubiquitin-AMC cleavage with 1 µM hD1,[1],the hD1 peptide had no effect on USP7CD or CYLD activity
"yeast SAGA DUB module (Ubp8/Sgf11/Sgf73 1-105/Sus1), construct lacking the Avi tag, 6xHis tag cleaved (protein) chain 1: MSICPHIQQVFQNEKSKDGVLKTCNAARYILNHSVPKEKFLNTMKCGTCHEINSGATFMCLQCGFCGCWNHSHFLSHSKQIGHIFGINSNNGLLFCFKCEDYIGNIDLINDAILAKYWDDVCTKTMVPSMERRDGLSGLINMGSTCFMSSILQCLIHNPYFIRHSMSQIHSNNCKVRSPDKCFSCALDKIVHELYGALNTKQASSSSTSTNRQTGFIYLLTCAWKINQNLAGYSQQDAHEFWQFIINQIHQSYVLDLPNAKEVSRANNKQCECIVHTVFEGSLESSIVCPGCQNNSKTTIDPFLDLSLDIKDKKKLYECLDSFHKKEQLKDFNYHCGECNSTQDAIKQLGIHKLPSVLVLQLKRFEHLLNGSNRKLDDFIEFPTYLNMKNYCSTKEKDKHSENGKVPDIIYELIGIVSHKGTVNEGHYIAFCKISGGQWFKFNDSMVSSISQEEVLKEQAYLLFYTIRQVN chain 2: MTEETITIDSISNGILNNLLTTLIQDIVARETTQQQLLKTRYPDLRSYYFDPNGSLDINGLQKQQESSQYIHCENCGRDVSANRLAAHLQRCLSRGARR chain 3: MRSGDAEIKGIKPKVIEEYSLSQGSGPSNDSWKSLMSSAKDTPLQYDHMNRESLKKYFNPNAQLIEDPLDKPIQYRVCEKCGKPLALTAIVDHLENHCAGASGKS chain 4: MTMDTAQLKSQIQQYLVESGNYELISNELKARLLQEGWVDKVKDLTKSEMNINESTNFTQILSTVEPKALEMVSDSTRETVLKQIREFLEEIVDTQ",Ub-AMC cleavage,[5],yD1 did not inhibit activity of the yeast DUB module
same,"Ub-AMC cleavage, 50 nM yeast DUB module with 2.5 µM yD1",[5],"Rather than inhibition, yD1 produced a slight increase in cleavage rates"
USP30 (protein) TERKKRRKGLVPGLVNLGNTCFMNSLLQGLSACPAFIRWLEEFTSQYSRDQKEPPSHQYLSLTLLHLLKALSCQEVTDDEVLDASCLLDVLRMYRWQISSFEEQDAHELFHVITSSLEDERDRQPRVTHLFDVHSLEQQSEITPKQITCRTRGSPHPTSNHWKSQHPFHGRLTSNMVCKHCEHQSPVRFDTFDSLSLSIPAATWGHPLTLDHCLHHFISSESVRDVVCDNCTKIEAKGTLNGEKVEHQRTTFVKQLKLGKLPQCLCIHLQRLSWSSHGTPLKRHEHVQFNEFLMMDIYKYHLLGHKPSQHNPKLNKNPGPTLELQDGPGAPTPVLNQPGAPKTQIFMNGACSPSLLPTLSAPMPFPLPVVPDYSSSTYLFRLMAVVVHHGDMHSGHFVTYRRSPPSARNPLSTSNQWLWVSDDTVRKASLQEVLSSSAYLLFYERVLSRMQHQSQECKSEE,ubiquitin-AMC cleavage with 1 µM hD1,[1],only a very modest (˜15%) effect on USP30
